Experimental data published in the DeepSol protein solubility set.

Experiment: soluble on expression in E. coli; label from the status in PepcDB or PDB records

Sequence	soluble on expression in E. coli
MQTDSLSPSPNPVSPVPLNNPTSAPRYGTVIPNRIFVGGIDFKTNESDLRKFFSQYGSVKEVKIVNDRAGVSKGYGFVTFETQEDAQKILQEAEKLNYKDKKLNIGPAIRKQQVGIPRSSIMPAAGTMYLTTSTGYPYTYHNGVAYFHTPEVTSVPPPWPSRSVCSSPVMVAQPIYQQPAYHYQATTQYLPGQWQWSVPQPSASSAPFLYLQPSEVIYQPVEIAQDGGCVPPPLSLMETSVPEPYSDHGVQATYHQVYAPSAITMPAPVMQPEPIKTVWSIHY	soluble
MQTSPEREAVIIRSGNSKILNTRSLMSDSRPEVLTEEDVLRLFPVLGGERRLTRRLLKALKITDINAVHARHINLRGAEFAHAALTDPAINVCYRLHGAEHLEEMRKGGAFTTVSNHPFGSLDGIMLIDIIGSVRPDYSVLVNGFLSMISCLRDSFIPVAPLKGMAGGLDSKHNVSGVKEVLNRLQNGQPVGFFPAGGISVYKGNRNRVMDSEWQASCAKMILVSQVPVYPIFFSGRNSWYFHFLGWLSWAIRTPRIPAELFNKRGHIFDVYIGDPIPPETIARFEKNPRELALFLYDRTYRLAPGHKKNK	not soluble
MQVLNTKSETKQENETMQPPYIQERLKSLNDIETQLCSMLQEASQVTFIFGELKRGNESVKPQFENHVKQFYERLDKSTTQLRKEIQLLDENVGTRLLPINVNKKALGQDTEKMEEQLDLLSAILDPSKSK	soluble
MQVMASPPCTTEELSPPPGGSLVEYSGGSLRVPDNPVVAFIRGDGVGPEVVESALKVVDAAVKKVYGGSRRIVWWELLAGHLAREKCGELLPKATLEGIRLARVALKGPLETPVGTGYRSLNVAIRQALDLYANIRPVRYYGQPAPHKYADRVDMVIFRENTEDVYAGIEWPHDSPEAARIRRFLAEEFGISIREDAGIGVKPISRFATRRLMERALEWALRNGNTVVTIMHKGNIMKYTEGAFMRWAYEVALEKFREHVVTEQEVQEKYGGVRPEGKILVNDRIADNMLQQIITRPWDYQVIVAPNLNGDYISDAASALVGGIGMAAGMNMGDGIAVAEPVHGTAPKYAGKDLINPSAEILSASLLIGEFMGWREVKSIVEYAIRKAVQSKKVTQDLARHMPGVQPLRTSEYTETLIAYIDEADLNEVLAGKRG	soluble
MQVRIERAERIESELEEHVGDQTFVEESRFLEEDEQREGEILDQIIFVDGKRRSFVRITTDEGITGIFAELCVGAVIWDREGGTKTLFSPDKPPVKERVLGFSQSFQEEGYEEVGGILFKVVKEGKDAMQSIDLYMRSLEIEEVRKHMDKNILIVKDGPAARELPFEENVGPIGLVKNIGVTELSKEDFKKLRFLKKGKRSKMFVSSRETPLKKVGAYVKLIDGEGIRGLVRLETYVKDDNQIPYIRKVFDDLAKTLPHLTADLPIPRLPENILPIQFLEENLSYYLTDKNYMNTRLFAYIGR	not soluble
MQVSPHDTSQPKQHAQSLSSASQSEAGKYTDGRETSARWLDDDSIAQRDLWNFIGDELKMGIPDNARIREQKTRYLKNKSYLHDVTLRAEPYMYWIVEQIKQRKMPMELVLLPIVESAFDPSATSSANAAGLWQIIPGTGRNYGLKQNQWYDGRRDVIASTTAALDMMQRLNTMFDGDWLLTVAAYNSGEGRVMQAMKANKAKGKPTNFWALALPRETSIYVPKMLALSDILKNSKKYGVNLPQPNESRALAKVELGQQIELTQAAEMAGLSLNKLKSYNSGYKRNVTAPNGPHYIMVPKAHVEQLKDSLADGDIAAIQPTRLEQTPASQQYKVRSGDTLSAIATRLNVSTKDLQSWNNLRSVGALKVGQTLQVAKASGTNGSITYQVRKGDSLASIAKRHGVNIADVMRWNTVINKNANIQPGDRLTLYVSSNIKPDSLEHHHHHH	soluble
MRAIIIGIGQCGTKIADIFSLVDFEALAINTSKSDLEYLKHIPPERRILVGESIVGGKGVNANPLLGREAMKRDLPMVMKKISSLVGYEDVDIFFLTFGFGGGTGAGGTPVLAEALKEEYPDSLVVAIGALPLKEEGIRPTINAAITIDKLSRIVDSIIAIDNNKLKESDEDISQAYEKINYAIVERIASLLALIDVPGEQTLDASDLKFVLRAMGSFATVGYAKADATKIKSLSRLIIRSFENEGLYLDVNLESALYGLVAIHGPPEVLKAKEIFDALSELSQRIRGKQIFRGFYPDPREREVEVVTLLSGIYESKSIENIVITAKRYAREFMKAKEEGEMKKRELLKGLPDFEDIYPGEVDEG	soluble
MRARIICGFRLVSETGSGSSSSDLTSASGASQWGNSSRSHWLKRWCASCSSAPEISNWQLSPASVSVPISARALLALPCGQCAGYATQFVMKKYYTAFQRGLPDAHVRRLEHHHHHH	not soluble
MRDHRPTATDELIQASKLKQIQEHAKAILLINRQLQDILPKGLKTQVRAANVRGGNLVLEAASAALKMKVDYERLHILTQLRQNGFGHLISIEVRVNPELYRQSKITSEDARAANPRPPLSEHAAHVLLAIADQASDKVKKRLQSLARLAKANQKDD	not soluble
MRDKTLKAILAHAEAEHPKECCGVVAQKSRVEKYFPCENLATNPTEQFHLDPTGYVEAEDWGTITAIVHSHPDATTQPSELDMAQCDNNELPWHIVSWPEGDLRTIQPRGDLPLVGREFVLGHTDCWGLIMSYFRQTHDIELKDYRVDRHWWESGTENFYMDNWYECGFREFSGPAQPGDLIIMQVSAPVANHGGILLEDGMLLHHPYGQLSQRVPYGGYWQERTMKVVRYEISQL	not soluble
MRDLKIVNGDLSFIDYGILLVEGDLELAQSVFMILSIRLEEFKLDTSVGLESDNMFGKNYNEDYLKQDITEAILDQEPRINSIENIEIVRNNRQLNITVEMLSTLGDEVEVVIRA	not soluble
MRDMIHNISYRLMVYGTEDEEKVIEALRNVIPGATPERESAEGYHGNPITVLRGRLDRRRALREFMEKFTEVFRGRMDELEDRFDENGNLFLRLDKQKALEGVWEPVRHGDAIHLKIKVEAYPAKREVAVENIRKILE	not soluble
MREQQPDVPPAEPANDVVAPPPLMDLGPPVNPMLPLDLPYNVVREIGIAVSSKITILLLRTPNYKLD	not soluble
MRERVCVSHCVLQRTVVCRPRTFVRERIRTQFKLVSLFITMPKSLRKRFVLVSIDDNIEQINAARKLRRYLTNNHLNHIFSSTPEEMKEYLDKLDSGTFNFRETAEEQKSVDPFSEANQPAIQMSSNQEILEKWARGTFAENSDALKLLLEPTNIEEDAVLDDHESENIVNNIPQLFMVNSMDAETPNDSIIVENGKEDQLDMAYCSLCKHEVETGRNRNTKIRKQTEHVLDAHPESEFLNVDIAKRYECVHCLRTLPVSKSPCEHISEHHDKTHVEIEFRDLWSNEQVSTFNSVMEKCFLRHLPVPRSRRIRNGNTWYLSEKASYRIVRGGEIIHISTVADKSKTDNGKESKQSRLDNSERGKPTRSMDSDYDIFDNQDETDSEEGARSESIDTGNKVSESEPGSLQSVIDLE	not soluble
MRGGMGNMQKMMKQMQKMQKDMAKAQEELAEKVVEGTAGGGMVTVKANGQKEILDVIIKEEVVDPEDIDMLQDLVLAATNEALKKVDEITNETMGQFTKGMNMPGLF	soluble
MRGLLILLLSLICLATPVLAQPVAAEQPLPDIRQRGFVYCVSGILNTFNPQMASSGLTVDTLAAQLYDRLLDVDPYTYRLIPELAESWQVLDNGATYRFHLRKDVPFQTTDWFTPTRMMNADDVVFSFQRVFDSKHPYHKVNGGEYPYFDSLQFASAVKSVKKLDDYTVEFKLKAPDASFLWHLATHYAPVLSSEYADVLTQKGKEEQIDREPVGTGPFLLDEYRSGQYIRLFRNSHYWKGVPRMPQVVIDLGVGGTGRLSKLLTGECDVLAYPAASQLSILRDDPPRLRLTLRPGMNVAYLAFNTRKPPLSDQRVRQAIALSINNQRLMQSIYYGTAETAASILPRASWAYDNQAQVTEYNPEKAKEILKDLGITQLQLNLWVPTASQSYNPSPLKTAELIQADLAQVGISVTIVPVEGRFQEARLMEMNHDLTLSGWSTDSNDPDSFFRPLLSCAAIRSQTNYAHWCDPAFDELLQKALRSQQLSERIEYYQQAQRILEQQLPLLPLASSLRLQAYRYDIKGLVLSPFGNSSFAGVYRESDEGKTP	not soluble
MRGPLLPPTVPGWRSRAERFDMAVLEAYEPIERRWQERVSQLDIAVDEIPRIAAKDPESVQWPPEVIADGPIALARLIPAGVDVRGNATRARIVLFRKPIERRAKDTEELGELLHEILVAQVAIYLDVDPSVIDPTIDD	soluble
MRGSHHHHHHGSELSKSSIVDKVELDHTTLYQGEMTSIKVSFSDKENQKIKPGDTITLTLPDALVGMTENDSSPRKINLNGLGEVFIYKDHVVATFNEKVESLHNVNGHFSFGIKTLITNSSQPNVIETDFGTATATQRLTIEGVTNTETGQIERDYPFFYKVGDLAGESNQVRWFLNVNLNKSDVTEDISIADRQGSGQQLNKESFTFDIVNDKETKYISLAEFEQQGYGKIDFVTDNDFNLRFYRDKARFTSFIVRYTSTITEAGQHQATFENSYDINYQLNNQDATNEKNTSQVKNVFVEGEASGNQNVEMPTEESLDIPLETIDEWEPKTPTSEQATETSEKTD	soluble
MRGSHHHHHHGSIQKTTIAADSSSKPRGINYDTGIPFNVLIVDDSVFTVKQLTQIFTSEGFNIIDTAADGEEAVIKYKNHYPNIDIVTLDITMPKMDGITCLSNIMEFDKNARVIMISALGKEQLVKDCLIKGAKTFIVKPLDRAKVLQRVMSVFVK	soluble
MRGSHHHHHHTDPALRAAFRMSEQPRTIKIYNLLAGTNEFIGEGDAYIPPHTGLPANSTDIAPPDIPAGFVAVFNSDESSWHLVEDHRGKTVYDVASGNALFISELGPLPENVTWLSPEGEFQKWNGTAWVKDTEAEKLFRIREAEETKNNLMQVASEHIAPLQDAADLEIATEEEISLLEAWKKYRVLLNRVDTSTAQDIEWPALPGLCGR	soluble
MRGSHHHHHHTDPALRAKRAVVVFSGGQDSTTCLVQALQQYDEVHCVTFDYGQRHRAEIDVARELALKLGARAHKVLDVTLLNELAVSSLTRDSIPVPDYEPEADGIPNTFVPGRNILFLTLAAIYAYQVKAEAVITGVCETDFSGYPDCRDEFVKALNHAVSLGMAKDIRFETPLMWIDKAETWALADYYGKLDLVRNETLTCYNGFKGDGCGHCAACNLRANGLNHYLADKPTVMAAMKQKTGLRGLCGR	soluble
MRHCGWLLGLLSLFSLATHASDWQEIKNEAKGQTVWFNAWGGDTAINRYLDWVSGEMKTHYAINLKIVRLADAADAVKRIQTEVAAGRKTGGSVDLLWVNGENFRTLKEANLLQTGWAETLPNWRYVDTQLPVREDFSVPTEGAESPWGGAQLTFIARRDVTLQPPQTPQALLEFAKANPGTVTYPRPPDFTGTAFLEQLLIMLTPDPTALKEAPDDATFARVTAPLWQYLDALHPYLWREGKDFPPSPARMDALLKANTLRLSLTFNPAHAQQKIASGDLPASSYSFGFREGMIGNVHFVTIPANANASAAAKVVANFLLSPDAQLRKADPAVWGDPSVLDPQKLPDGQRESLQSRMPQDLPPVLAEPHAGWVNALEQEWLHRYSTH	not soluble
MRHTCPKVTLRQRAIRNGRISLYLDYYPAVRNPETMQMSRREYLGIYIYAHPKNEMEREFNMDMLNKAEAIRCIRVQSLINEEFGFLDRTKMKTDFLAYFLKMCRKKDQKWRIVYQHFYNYVQGHCTFGDITIELCQGFREYLLNAKQLKRKGKVSTNSASGYYSTFRGLLKIAYRDKWLRENINDFLDKIEAKEVKKEYLTLDEVKILAQTPCEHDVLKRASLFSCLTGLRISDILNLRWEDFTLAPDQGYCIRIRTQKTSTEATLPIS	not soluble
MRHYKTLRYYETVFAVKPTLSEEEMKKKFEQVKEFIKQKGGEILYEEDWGMRQLAYPIQKFNNARYFLVQFKTENPQLPNELDFQLKIDEDVIRWLNIQIKESEVKKNAQ	soluble
